# Source: patent US20220220200A1 (NANJING IASO BIOTECHNOLOGY, published 2022)
# T1: Biotinylated Human BCMA/TNFRSF17 Protein, Fc Tag, Avi Tag (BCMA-hFc-Bio) (human, UniProt Q02223 1-54, biotinylated (Avitag))
# T1 construct: Bought protein; also called control antigen BCMA; unrelated antigen BCMA; not shown: Fc tag (hFc) and Avi tag
# T1 sequence (looked up): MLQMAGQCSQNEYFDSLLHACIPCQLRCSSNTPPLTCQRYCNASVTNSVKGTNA
# B1: #78 scFv phage antibody clone (scFv)
# scFv: QAVLTQPPSVSEAPRQRVTISCSGSSSNIGNNAVSWYQQLPGKAPKLLIYYDDLLPSGVSDRFSGSKSGTSASLAISGLQSEDEADYYCAAWDDSLNGWVFGGGTKVTVLGSRGGGGSGGGGSGGGGSLEEVQLVQSGAEVKKPGESLKISCKGSGYSFTSYWIGWVRQMPGKGLEWMGIIYPGDSDTRYSPSFQGQVTISADKSISTAYLQWSSLKASDTAMYYCARLSYSWSSWYWDFWGQGTLVTVSS
# notes: The phage coat fusion is not described; also called clone #78; phage #78
# B2: #62 scFv phage antibody clone (scFv)
# scFv: QSVVTQPPSVSGAPGQRVTISCTGSSSNIGAGYDVHWYQQLPGTAPKLLIYENTNRPSGVPDRFSGSKSGTSASLAITGLQAEDEADYYCQSYDSSLSGWRVFGGGTKLTVLGSRGGGGSGGGGSGGGGSLEMAEVQLVQSGAEVKKPGESLKISCKGSGYSFTNSWIGWVRQMPGKGLEWMGLIYPDDSDTRYSPSFQGQVTISADSAINTAYLQWSSLKASDTAMYYCARQSTYIYGGYYDTWGQGTLVTVSS
# notes: The phage coat fusion is not described; also called clone #62; phage #62
# Key:
# Streptavidin = biological target: T2, Streptavidin (UniProt P22629 37-163, limits assumed); assay: phage ELISA, streptavidin-coated plate
# T2 construct: Plate coating in the phage ELISA, tested as a control antigen; also called Strepavidin
# Protocol: (§1) In ELISA preliminary screening, the streptavidin-biotin binding allowed the biotinylated target protein (CD19-hFc-Bio) and the control protein (BCMA-hFc-Bio) to be closer to native antigen conformation in the reaction solution. Clones that only bound to CD19-hFc-Bio but not to BCMA-hFc-Bio and streptavidin were considered specific. The FACS preliminary screening was performed using a cell line Raji with high expression of CD19 and Raji-CD19ko with knockout of CD19 molecules, and clones that only bind to Raji cells but not to Raji-CD19ko cells were considered specific. Through the two preliminary screenings based on ELISA and FACS respectively, we could obtain candidate antibodies that can not only bind to the recombinantly expressed CD19 protein but also recognize the native CD19 molecules on the cell surface for further screening.
# (§2) Monoclonal antibodies were randomly selected from the enriched phage antibody pool, packaged into phages, and the binding of the monoclonal phage to CD19-hFc-Bio protein and BCMA-hFc-Bio protein was detected by phage ELISA to find CD19-specific phage antibody clones. Control 1 is FMC-63 ([…] anti-human CD19 phage antibody clone); and control 2 is non-CD19-bound scFv phage antibody clone. […]
# [1] = biological target: T1, Biotinylated Human BCMA/TNFRSF17 …; assay: phage ELISA, biotinylated antigen on streptavidin plate
# Protocol: as §1, §2
# T2 sequence (P22629 37-163 limits assumed): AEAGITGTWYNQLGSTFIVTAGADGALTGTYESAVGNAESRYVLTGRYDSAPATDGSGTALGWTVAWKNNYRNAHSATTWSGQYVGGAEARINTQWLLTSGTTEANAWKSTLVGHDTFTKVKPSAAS
binder,measurement,setting,value
B1,binding result,Streptavidin,no binding
same,binding result,[1],no binding
B2,binding result,Streptavidin,no binding
same,binding result,[1],no binding
